According to PMC11876703, “Structural basis for human NKCC1 inhibition by loop diuretic drugs” (The EMBO Journal, 2025):

Tests used:
[1] = target: T1, phospho-activated human NKCC1 (Na+-K+-Cl- cotransporter 1) (human), P55011; assay: cryo-EM structure; purified pNKCC1 in GDN, 20 mM HEPES pH 7.4, with 100 uM bumetanide, 100 uM torsemide (K+-free buffer) or 2 mM furosemide plus 100 uM ATP; homodimer; details: remark: other sources report otherwise
T1 chain: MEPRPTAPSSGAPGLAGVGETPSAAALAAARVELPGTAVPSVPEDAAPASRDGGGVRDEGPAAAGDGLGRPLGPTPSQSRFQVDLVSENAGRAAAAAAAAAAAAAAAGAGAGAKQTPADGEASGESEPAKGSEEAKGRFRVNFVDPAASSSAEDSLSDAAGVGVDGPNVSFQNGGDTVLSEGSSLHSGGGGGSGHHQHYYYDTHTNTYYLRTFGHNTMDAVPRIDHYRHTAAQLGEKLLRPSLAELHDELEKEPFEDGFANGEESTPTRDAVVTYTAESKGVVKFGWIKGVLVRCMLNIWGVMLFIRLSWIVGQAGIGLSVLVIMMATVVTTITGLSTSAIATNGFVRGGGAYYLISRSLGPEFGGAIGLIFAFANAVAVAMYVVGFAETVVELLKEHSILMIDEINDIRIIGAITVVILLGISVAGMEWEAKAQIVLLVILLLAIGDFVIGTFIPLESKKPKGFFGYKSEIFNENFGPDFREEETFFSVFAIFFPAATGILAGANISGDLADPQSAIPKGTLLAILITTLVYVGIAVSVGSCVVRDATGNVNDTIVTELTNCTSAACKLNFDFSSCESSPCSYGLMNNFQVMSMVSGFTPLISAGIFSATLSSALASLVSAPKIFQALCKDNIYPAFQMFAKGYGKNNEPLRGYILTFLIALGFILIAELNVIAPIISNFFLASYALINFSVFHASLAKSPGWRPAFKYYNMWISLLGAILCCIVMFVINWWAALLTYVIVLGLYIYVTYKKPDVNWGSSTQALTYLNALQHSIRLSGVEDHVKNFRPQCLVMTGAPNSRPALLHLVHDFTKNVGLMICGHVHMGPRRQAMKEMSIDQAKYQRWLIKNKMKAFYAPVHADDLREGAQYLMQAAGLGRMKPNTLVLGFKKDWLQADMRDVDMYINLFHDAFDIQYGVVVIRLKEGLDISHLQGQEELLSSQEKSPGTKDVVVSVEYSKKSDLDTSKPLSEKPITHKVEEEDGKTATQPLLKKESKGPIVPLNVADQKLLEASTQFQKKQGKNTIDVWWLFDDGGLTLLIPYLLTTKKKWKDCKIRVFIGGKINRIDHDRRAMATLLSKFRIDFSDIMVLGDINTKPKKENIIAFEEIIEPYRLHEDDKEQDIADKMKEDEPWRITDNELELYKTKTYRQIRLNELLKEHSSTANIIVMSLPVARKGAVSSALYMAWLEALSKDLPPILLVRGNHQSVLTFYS

[2] = target: the molecule itself; assay: as above

B1: phospho-activated human NKCC1 (Na+-K+-Cl- cotransporter 1), P55011 1-1212 (natural protein)
chain: MEPRPTAPSSGAPGLAGVGETPSAAALAAARVELPGTAVPSVPEDAAPASRDGGGVRDEGPAAAGDGLGRPLGPTPSQSRFQVDLVSENAGRAAAAAAAAAAAAAAAGAGAGAKQTPADGEASGESEPAKGSEEAKGRFRVNFVDPAASSSAEDSLSDAAGVGVDGPNVSFQNGGDTVLSEGSSLHSGGGGGSGHHQHYYYDTHTNTYYLRTFGHNTMDAVPRIDHYRHTAAQLGEKLLRPSLAELHDELEKEPFEDGFANGEESTPTRDAVVTYTAESKGVVKFGWIKGVLVRCMLNIWGVMLFIRLSWIVGQAGIGLSVLVIMMATVVTTITGLSTSAIATNGFVRGGGAYYLISRSLGPEFGGAIGLIFAFANAVAVAMYVVGFAETVVELLKEHSILMIDEINDIRIIGAITVVILLGISVAGMEWEAKAQIVLLVILLLAIGDFVIGTFIPLESKKPKGFFGYKSEIFNENFGPDFREEETFFSVFAIFFPAATGILAGANISGDLADPQSAIPKGTLLAILITTLVYVGIAVSVGSCVVRDATGNVNDTIVTELTNCTSAACKLNFDFSSCESSPCSYGLMNNFQVMSMVSGFTPLISAGIFSATLSSALASLVSAPKIFQALCKDNIYPAFQMFAKGYGKNNEPLRGYILTFLIALGFILIAELNVIAPIISNFFLASYALINFSVFHASLAKSPGWRPAFKYYNMWISLLGAILCCIVMFVINWWAALLTYVIVLGLYIYVTYKKPDVNWGSSTQALTYLNALQHSIRLSGVEDHVKNFRPQCLVMTGAPNSRPALLHLVHDFTKNVGLMICGHVHMGPRRQAMKEMSIDQAKYQRWLIKNKMKAFYAPVHADDLREGAQYLMQAAGLGRMKPNTLVLGFKKDWLQADMRDVDMYINLFHDAFDIQYGVVVIRLKEGLDISHLQGQEELLSSQEKSPGTKDVVVSVEYSKKSDLDTSKPLSEKPITHKVEEEDGKTATQPLLKKESKGPIVPLNVADQKLLEASTQFQKKQGKNTIDVWWLFDDGGLTLLIPYLLTTKKKWKDCKIRVFIGGKINRIDHDRRAMATLLSKFRIDFSDIMVLGDINTKPKKENIIAFEEIIEPYRLHEDDKEQDIADKMKEDEPWRITDNELELYKTKTYRQIRLNELLKEHSSTANIIVMSLPVARKGAVSSALYMAWLEALSKDLPPILLVRGNHQSVLTFYS
modifications: here or on the partner: phosphothreonine at Thr212, Thr217 and Thr230 (verified by mass spectrometry); Thr203, Thr205 and Thr207 also named as phosphoacceptor sites confirmed by mass spectrometry; phosphothreonine at Thr212, Thr217 and Thr230 (verified by mass spectrometry); Thr203, Thr205 and Thr207 also named as phosphoacceptor sites confirmed by mass spectrometry
For B1, the stoichiometry N [1] was 2.

B2: phospho-activated human NKCC1 bearing K289N and A492E mutations (natural protein, UniProt P55011 1-1212, looked up)
chain: MEPRPTAPSSGAPGLAGVGETPSAAALAAARVELPGTAVPSVPEDAAPASRDGGGVRDEGPAAAGDGLGRPLGPTPSQSRFQVDLVSENAGRAAAAAAAAAAAAAAAGAGAGAKQTPADGEASGESEPAKGSEEAKGRFRVNFVDPAASSSAEDSLSDAAGVGVDGPNVSFQNGGDTVLSEGSSLHSGGGGGSGHHQHYYYDTHTNTYYLRTFGHNTMDAVPRIDHYRHTAAQLGEKLLRPSLAELHDELEKEPFEDGFANGEESTPTRDAVVTYTAESKGVVKFGWINGVLVRCMLNIWGVMLFIRLSWIVGQAGIGLSVLVIMMATVVTTITGLSTSAIATNGFVRGGGAYYLISRSLGPEFGGAIGLIFAFANAVAVAMYVVGFAETVVELLKEHSILMIDEINDIRIIGAITVVILLGISVAGMEWEAKAQIVLLVILLLAIGDFVIGTFIPLESKKPKGFFGYKSEIFNENFGPDFREEETFFSVFEIFFPAATGILAGANISGDLADPQSAIPKGTLLAILITTLVYVGIAVSVGSCVVRDATGNVNDTIVTELTNCTSAACKLNFDFSSCESSPCSYGLMNNFQVMSMVSGFTPLISAGIFSATLSSALASLVSAPKIFQALCKDNIYPAFQMFAKGYGKNNEPLRGYILTFLIALGFILIAELNVIAPIISNFFLASYALINFSVFHASLAKSPGWRPAFKYYNMWISLLGAILCCIVMFVINWWAALLTYVIVLGLYIYVTYKKPDVNWGSSTQALTYLNALQHSIRLSGVEDHVKNFRPQCLVMTGAPNSRPALLHLVHDFTKNVGLMICGHVHMGPRRQAMKEMSIDQAKYQRWLIKNKMKAFYAPVHADDLREGAQYLMQAAGLGRMKPNTLVLGFKKDWLQADMRDVDMYINLFHDAFDIQYGVVVIRLKEGLDISHLQGQEELLSSQEKSPGTKDVVVSVEYSKKSDLDTSKPLSEKPITHKVEEEDGKTATQPLLKKESKGPIVPLNVADQKLLEASTQFQKKQGKNTIDVWWLFDDGGLTLLIPYLLTTKKKWKDCKIRVFIGGKINRIDHDRRAMATLLSKFRIDFSDIMVLGDINTKPKKENIIAFEEIIEPYRLHEDDKEQDIADKMKEDEPWRITDNELELYKTKTYRQIRLNELLKEHSSTANIIVMSLPVARKGAVSSALYMAWLEALSKDLPPILLVRGNHQSVLTFYS
modifications: phosphothreonine at Thr212, Thr217 and Thr230 (verified by mass spectrometry; pT212 and pT217 clearly seen in the map, pT230 tentatively modeled); Thr203, Thr205 and Thr207 also named as phosphoacceptor sites confirmed by mass spectrometry
notes: Used for the furosemide/ATP-Mg2+ co-structure; The tag was used for Strep-Tactin purification and no cleavage step is described; also called pNKCC1; NKCC1 (furosemide co-structure); source: calyculin-A treated; purified (Strep-Tactin resin, Superose 6) in GDN with 100 uM ATP
B2 was tested, and the “stoichiometry N” value [2] was 2.
